# Source: patent US20100167997A1, “METHOD FOR STIMULATION COLLAGEN SYNTHESIS AND/OR KGF EXPRESSION” (ATYR PHARMA, INC., priority 2005, published 2010)
# B1: AIMP1: ARS-interacting multi-functional protein 1, a protein consisting of 312 amino acids (SEQ ID NO: 1) (protein, listed as Homo sapiens)
# chain: MANNDAVLKRLEQKGAEADQIIEYLKQQVSLLKEKAILQATLREEKKLRVENAKLKKEIEELKQELIQAEIQNGVKQIAFPSGTPLHANSMVSENVIQSTAVTTVSSGTKEQIKGGTGDEKKAKEKIEKKGEKKEKKQQSIAGSADSKPIDVSRLDLRIGCIITARKHPDADSLYVEEVDVGEIAPRTVVSGLVNHVPLEQMQNRMVILLCNLKPAKMRGVLSQAMVMCASSPEKIEILAPPNGSVPGDRITFDAFPGEPDKELNPKKKIWEQIQPDLHTNDECVATYKGVPFEVKGKGVCRAQTMSNSGIK
# Legend:
# KGF = test: RT-PCR analysis of KGF expression in foreskin fibroblast cells; type: cell-based; conditions: 100 nM for 2 hours, FIG. 4
# Protocol: From foreskin fibroblast cells treated with 100 nM of the AIMP1 for 2 hours, the total RNA was extracted in the same manner as described in Example <1-2>. Then, the extract was amplified by RT-PCR using KGF-specific primers (SEQ ID NO: 8 and SEQ ID NO: 9). The control groups were amplified using cyclin D-specific primers (SEQ ID NO: 10 and SEQ ID NO: 11) and GADPH-specific primers (SEQ ID NO: 6 and SEQ ID NO: 7), respectively. The PCR reaction consisted of: predenaturation of the template DNA at 95° C. for 5 min, followed by 25 cycles of 1 min at 95° C., 1 min at 52° C. and 1 min at 72° C., and then, a final extension for 5 min at 72° C.
# (§1) Foreskin fibroblast cells (5×10^4 cells/well) were cultured in 10% serum-containing DMEM medium on a 6-well plate about 12 hours, and then, cultured in serum-free medium for about 3 hours. Then, the cultured cells were treated with 100 nM of the N-terminal and C-terminal fragments of the AIMP1 prepared in Reference Example 1, at various time intervals of 0, 1, 2, 4, and 6 hours. Then, RT-PCR was performed in the same manner as in Example <1-2> using each of collagen-specific primers (SEQ ID NO: 4 and SEQ ID NO: 5), KGF-specific primers (SEQ ID NO: 8 and SEQ ID NO: 9) and GADPH-specific primers (SEQ ID NO: 6 and SEQ ID NO: 7).
# (§2) Foreskin fibroblast cells (5×10^4 cells/well) were cultured in 10% serum-containing DMEM medium on a 6-well plate for 12 hours and then cultured in serum-free medium for about 3 hours. Next, the cultured cells were treated with each of the N-terminal fragments (SEQ ID NOS: 12, 13 and 14) and C-terminal fragment (SEQ ID NO: 15) of AIMP1 prepared in Reference Example 2 at an concentration of 100 nM for 2 hours and 6 hours, respectively. The treated cells were subjected to RT-PCR using collagen-specific primers (SEQ ID NOS: 4 and 5), KGF-specific primers (SEQ ID NOS: 8 and 9) and GADPH-specific primers (SEQ ID NOS: 6 and 7) in the same manner as in Example <1-2>.
# collagen [1] = test: Western blot analysis of collagen (anti-collagen I antibody) in foreskin fibroblast cells; type: cell-based
# Protocol: (§3) In order to measure the collagen transcript RNA induced by the AIMP1, foreskin fibroblast cells (5×10^4 cells/well; obtained from MTT; accession number: MC1232) were cultured in 10% serum-containing DMEM medium on a 6-well plate for 12 hours and then cultured in serum-free medium for about 3 hours. Next, the cultured cells were treated with the AIMP1 (SEQ ID NO: 1) at varying AIMP1 concentrations of 0, 20, 50, 100 and 200 nM for 6 hours (RT-PCR) or 12 hours (Western blot).
# The cells treated with the AIMP1 at varying AIMP1 concentrations in Example <1-1> were collected and lysed in a cell lysis buffer (50 mM HEPES, pH 7.5, 150 mM NaCl, 10% glycerol, 5 mM EGTA, 1 mM sodium orthovanadate, 10 mM NaF, 12 mM b-glycerophosphate, 1 mM DTT, 1 mM PMSF, […] aprotinin, and 1% NP40). Lysed cells were centrifuged at 26,000 g for 15 minutes and the cell extract was isolated. 30 μg of the cell extract was separated by 8% SDS-PAGE and immunoblotted with an anti-collagen I antibody (Abcam) according to any conventional method known in the art. As a control group, an anti-tubulin antibody (Sigma) was used.
# (§4) Foreskin fibroblast cells (5×10^4 cells/well) were cultured in 10% serum-containing DMEM medium on a 6-well plate for 12 hours, and then, cultured in serum-free medium for about 3 hours. Next, the cultured cells were treated with 100 nM of the AIMP1 at various time intervals (0, 2, 4, 6, 12 and 24 hours).
# Foreskin fibroblast cells (5×10^5 cells/well) were cultured in 10% serum-containing DMEM medium on a 6-well plate for 48 hours and then cultured in serum-free medium for about 3 hours. Next, the cultured cells were treated with each of the AIMP1 (SEQ ID NO: 1) and the AIMP1 N-terminal fragments (SEQ ID NOS: 2 and 12) at a concentration of 200 nM for 12 hours. As a control group, cells without treatment were used.
# The cells treated with each of the AIMP1 and its N-terminal fragments and the control cells were collected at the indicated time and subjected to Western blot analysis in the same manner as in Example <1-3>.
# collagen [2] = test: Collagen immunofluorescent staining of wound site in wild-type and AIMP1-deficient mice; type: in vivo, mouse; conditions: WT and AIMP1-/- mice; 4 μg applied on wound site twice a day until 3 days after wounding; FIG. 3
# From the text: By the gene trap method known in the art (Zambrowicz, B. P., et al., Nature 392:608-611, 1998; Kim J Y et al., Proc. Natl. Acad. Sci. USA 99:7912-7916, 2002), a mutation in the AIMP1 gene of a male C57BL6 mouse was induced to prepare a AIMP1 gene deficient homozygous mouse (AIMP1^−/− mouse, Ho) (Park S. G. et al., Am. J. Pathol., in press: 2005). Then, on the back of each of the 8-week-old homozygous mouse and wild-type mouse (AIMP1^+/+ mice, WT), a circular cut-off window with a diameter of 0.5 cm was made with scissors. The wound site was left to stand without dressing. 4 μg of the AIMP1 prepared in Reference Example 1 was dissolved in 5 μl of 20% glycerol-containing PBS and applied on the wound site. The AIMP1 applied twice a day until 3 days after wounding. A control group (AIMP1-untreated group) was treated with 20% glycerol-containing PBS. Then, the tissue of the wound site was isolated using scissors and fixed in 4% paraformaldehyde overnight. The fixed tissue was washed with PBS, incubated in 30% sucrose solution for 4 hours, and then mixed with an OCT (optimal cutting temperature) compound and frozen at −70° C.
# 6 μm of the frozen section was attached to a silane-coated slide and washed with PBS. Then, the slide was blocked with PBS containing 0.1% tween 20 and 1% non-fat dry milk and allowed to react with an anti-collagen I antibody (Abcam) at 37° C. for 2 hours. […]
# collagen [3] = test: RT-PCR analysis of collagen transcript in foreskin fibroblast cells; type: cell-based
# Protocol: as §3
# The cells treated with the AIMP1 at varying concentrations in Example <1-1> were collected and dissolved in TRIzol (invitrogen). 10% by weight of chloroform was added to the cell lysate, and mixed well. The mixture was centrifuged at 12,000 g for 15 minutes and the supernatant was collected. Ethanol was added to the collected supernatant to a final concentration of 70%. Then, the supernant was centrifuged at 26,000 g for 5 minutes and the precipitant was collected. The precipitant was dried and dissolved in sterilized distilled water, and the total RNA was extracted. 3 μg of the total RNA was used to prepare cDNA. Then, the cDNA was amplified by PCR using collagen-specific primers (SEQ ID NO: 4 and SEQ ID NO: 5). At this time, for use as a control group, the cDNA was subjected to PCR using GADPH-specific primers (SEQ ID NO: 6 and SEQ ID NO: 7). The PCR reaction consisted of: pre-denaturation of the template DNA at 95° C. for 5 min, followed by 25 cycles of 1 min at 95° C., 1 min at 52° C. and 1 min at 72° C., and then a final extension for 5 min at 72° C.
# as §4, §1, §2
molecule,measurement,setting,value
B1,expression of KGF (RT-PCR),KGF,increased
same,"synthesis of collagen, protein levels (Western blot), varying concentrations","collagen [1]; 0, 20, 50, 100 and 200 nM for 12 hours, FIG. 1 bottom",stimulated the synthesis of collagen in fibroblast cells in dose-dependent manners
same,"synthesis of collagen, protein levels (Western blot), various time intervals","collagen [1]; 100 nM, 0, 2, 4, 6, 12 and 24 hours, FIG. 2 bottom",stimulated the synthesis of collagen
same,"synthesis of collagen, protein levels (Western blot), compared with cells without treatment","collagen [1]; 200 nM for 12 hours, FIG. 7",more stimulated
same,amount of collagen at wound site (immunofluorescence),collagen [2],further increased
same,"synthesis of collagen (RT-PCR), varying concentrations","collagen [3]; 0, 20, 50, 100 and 200 nM for 6 hours, FIG. 1 upper",stimulated the synthesis of collagen in fibroblast cells in dose-dependent manners
same,"synthesis of collagen (RT-PCR), various time intervals","collagen [3]; 100 nM, 0, 2, 4, 6, 12 and 24 hours, FIG. 2 upper",stimulated the synthesis of collagen in fibroblast cells in time-dependent manners
